According to article PMC4712668 (RNA, 2016):

T1: CLIP-6Myc-FLAG-TEV-Myc-Drosha (human, UniProt Q9NRR4 1-1374, CLIP-surface 547 or CLIP-surface 488 fluorophore on the CLIP tag)
T1 sequence: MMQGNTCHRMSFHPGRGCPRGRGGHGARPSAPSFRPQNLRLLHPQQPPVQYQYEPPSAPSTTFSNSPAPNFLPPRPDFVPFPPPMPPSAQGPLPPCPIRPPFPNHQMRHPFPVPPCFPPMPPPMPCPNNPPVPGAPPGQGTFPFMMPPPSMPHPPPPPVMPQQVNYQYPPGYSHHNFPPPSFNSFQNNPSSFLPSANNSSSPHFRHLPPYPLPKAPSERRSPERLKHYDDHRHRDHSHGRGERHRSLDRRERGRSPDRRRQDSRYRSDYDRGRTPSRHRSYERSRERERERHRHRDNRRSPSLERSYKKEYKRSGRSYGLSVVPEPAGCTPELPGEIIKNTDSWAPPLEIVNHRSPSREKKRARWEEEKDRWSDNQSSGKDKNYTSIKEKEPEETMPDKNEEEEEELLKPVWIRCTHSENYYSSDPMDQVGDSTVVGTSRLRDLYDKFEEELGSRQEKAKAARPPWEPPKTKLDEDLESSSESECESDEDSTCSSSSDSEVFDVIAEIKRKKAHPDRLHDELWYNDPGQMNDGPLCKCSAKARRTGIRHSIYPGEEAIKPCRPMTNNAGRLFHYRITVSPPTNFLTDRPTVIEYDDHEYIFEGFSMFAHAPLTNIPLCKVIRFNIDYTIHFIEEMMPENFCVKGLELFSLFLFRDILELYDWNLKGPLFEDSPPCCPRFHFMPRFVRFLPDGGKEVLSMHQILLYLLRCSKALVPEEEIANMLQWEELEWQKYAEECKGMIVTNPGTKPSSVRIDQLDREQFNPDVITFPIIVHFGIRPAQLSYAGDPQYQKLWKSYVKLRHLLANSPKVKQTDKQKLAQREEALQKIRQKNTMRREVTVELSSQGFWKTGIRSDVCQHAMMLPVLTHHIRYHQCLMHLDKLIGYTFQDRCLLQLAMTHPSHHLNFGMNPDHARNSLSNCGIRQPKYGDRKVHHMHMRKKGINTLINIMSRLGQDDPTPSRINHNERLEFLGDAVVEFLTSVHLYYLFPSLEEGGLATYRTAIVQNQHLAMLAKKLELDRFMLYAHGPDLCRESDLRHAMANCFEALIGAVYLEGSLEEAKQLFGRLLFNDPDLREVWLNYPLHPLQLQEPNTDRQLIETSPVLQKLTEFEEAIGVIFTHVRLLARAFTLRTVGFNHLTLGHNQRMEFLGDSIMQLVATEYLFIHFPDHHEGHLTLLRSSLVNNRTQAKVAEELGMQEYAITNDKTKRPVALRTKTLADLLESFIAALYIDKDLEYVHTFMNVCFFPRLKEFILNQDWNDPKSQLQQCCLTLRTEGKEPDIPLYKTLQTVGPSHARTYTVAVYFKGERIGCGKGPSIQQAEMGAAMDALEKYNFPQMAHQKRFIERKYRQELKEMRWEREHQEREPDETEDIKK

B1: SNAP-DGCR8 (natural protein)
chain: METDESPSPLPCGPAGEAVMESRARPFQALPREQSPPPPLQTSSGAEVMDVGSGGDGQSELPAEDPFNFYGASLLSKGSFSKGRLLIDPNCSGHSPRTARHAPAVRKFSPDLKLLKDVKISVSFTESCRSKDRKVLYTGAERDVRAECGLLLSPVSGDVHACPFGGSVGDGVGIGGESADKKDEENELDQEKRVEYAVLDELEDFTDNLELDEEGAGGFTAKAIVQRDRVDEEALNFPYEDDFDNDVDALLEEGLCAPKKRRTEEKYGGDSDHPSDGETSVQPMMTKIKTVLKSRGRPPTEPLPDGWIMTFHNSGVPVYLHRESRVVTWSRPYFLGTGSIRKHDPPLSSIPCLHYKKMKDNEEREQSSDLTPSGDVSPVKPLSRSAELEFPLDEPDSMGADPGPPDEKDPLGAEAAPGALGQVKAKVEVCKDESVDLEEFRSYLEKRFDFEQVTVKKFRTWAERRQFNREMKRKQAESERPILPANQKLITLSVQDAPTKKEFVINPNGKSEVCILHEYMQRVLKVRPVYNFFECENPSEPFGASVTIDGVTYGSGTASSKKLAKNKAARATLEILIPDFVKQTSEEKPKDSEELEYFNHISIEDSRVYELTSKAGLLSPYQILHECLKRNHGMGDTSIKFEVVPGKNQKSEYVMACGKHTVRGWCKNKRVGKQLASQKILQLLHPHVKNWGSLLRMYGRESSKMVKQETSDKSVIELQQYAKKNKPNLHILSKLQEEMKRLAEEREETRKKPKMSIVASAQPGGEPLCTVDV
modifications: SNAP-surface Alexa fluor 546 or SNAP-surface Alexa fluor 647 on the SNAP tag
B2: FLAG-SNAP-DGCR8 (natural protein)
chain: B1 chain
modifications: SNAP-surface 546 Alexa fluorophore on the SNAP tag in a portion of the sample

Tests used:
[1] = target: T1, CLIP-6Myc-FLAG-TEV-Myc-Drosha; assay: single-molecule immunoprecipitation with subunit counting by photobleaching
[2] = target: the molecule itself; assay: as above
[3] = target: the molecule itself; assay: SEC + other: glycerol gradient centrifugation

Row | Binder | stoichiometry N [1] [DGCR8 per Drosha] | stoichiometry N [2] [DGCR8 per complex] | stoichiometry N [3] [SNAP-DGCR8 per complex]
1 | B1 | 2 | 2 | 
2 | B2 |  |  | 2
